The values that follow come from PMC7116795.

The data set addresses RAD51 (UniProt Q06609 1-339). Nature of the data set: EMSA. Background: Mobility shift assays separate free from complexed probe on a gel.

RAD51, sequence (Q06609 whole entry): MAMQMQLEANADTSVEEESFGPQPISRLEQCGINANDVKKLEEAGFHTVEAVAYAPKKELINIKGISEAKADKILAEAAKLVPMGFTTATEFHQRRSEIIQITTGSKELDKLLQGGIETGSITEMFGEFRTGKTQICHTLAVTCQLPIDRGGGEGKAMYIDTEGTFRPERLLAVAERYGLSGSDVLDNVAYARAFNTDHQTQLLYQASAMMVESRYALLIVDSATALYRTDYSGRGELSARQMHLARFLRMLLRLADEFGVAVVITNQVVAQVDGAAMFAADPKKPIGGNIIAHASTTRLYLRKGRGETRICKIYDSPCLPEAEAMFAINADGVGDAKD

As for UUAGGGUUAGGGUUAGGGUUAGGGUUAGGGUUAGGGUUAGG (ssRNA) [41mer TERRA], the binding signal was ~3 fold higher affinity than TelDNA (N2).
